Measured values taken from article PMC9683861 (Journal of Molecular Biology, 2022).
Non-standard residues stand in square brackets, D forms with d. No end group written: not given here. pT = C[C@@H](OP(=O)(O)O)[C@H](N)C(=O)O; pS = N[C@@H](COP(=O)(O)O)C(=O)O

What was measured:
[1] = biological target: T1, FITC-labeled SARS-CoV-2 N pS197 phosphopeptide WSSRNpSTPGSS (SARS-CoV-2, also: FITC label, position not given here); test: fluorescence polarisation
T1 peptide: WSSRN[pS]TPGSS

[2] = biological target: T2, FITC-labeled SARS-CoV-2 N pT205 phosphopeptide WSSRGpTSPARM (SARS-CoV-2, also: FITC label, position not given here); test: fluorescence polarisation
T2 peptide: WSSRG[pT]SPARM

[3] = biological target: T3, 14-3-3σ (1-231 aa) (159KKE161→159AAA161, Clu1) (human, UniProt P31947 1-231, 159KKE161 → 159AAA161); test: crystal structure
T3 sequence: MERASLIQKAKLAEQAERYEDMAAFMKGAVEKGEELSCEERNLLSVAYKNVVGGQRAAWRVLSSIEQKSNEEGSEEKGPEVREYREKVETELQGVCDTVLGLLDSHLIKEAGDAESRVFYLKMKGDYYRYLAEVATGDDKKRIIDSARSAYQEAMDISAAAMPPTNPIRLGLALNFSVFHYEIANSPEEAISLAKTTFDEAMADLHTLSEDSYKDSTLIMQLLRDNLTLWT

[4] = biological target: T4, 14-3-3σ (1-231 aa) (75EEK77→75AAA77, Clu3) (human, UniProt P31947 1-231, 75EEK77 → 75AAA77); test: crystal structure
T4 sequence: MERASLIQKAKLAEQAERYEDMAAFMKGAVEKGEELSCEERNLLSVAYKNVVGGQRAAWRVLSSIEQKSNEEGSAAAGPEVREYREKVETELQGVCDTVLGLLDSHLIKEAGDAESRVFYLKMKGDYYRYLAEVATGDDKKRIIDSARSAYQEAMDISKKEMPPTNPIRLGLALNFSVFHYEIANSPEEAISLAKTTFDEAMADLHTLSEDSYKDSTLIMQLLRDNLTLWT

B1: MBP-tagged full-length human 14-3-3 sigma (σ) (natural protein)
chain: MERASLIQKAKLAEQAERYEDMAAFMKGAVEKGEELSCEERNLLSVAYKNVVGGQRAAWRVLSSIEQKSNEEGSEEKGPEVREYREKVETELQGVCDTVLGLLDSHLIKEAGDAESRVFYLKMKGDYYRYLAEVATGDDKKRIIDSARSAYQEAMDISKKEMPPTNPIRLGLALNFSVFHYEIANSPEEAISLAKTTFDEAMADLHTLSEDSYKDSTLIMQLLRDNLTLWTADNAGEEGGEAPQEPQS
KD ratio to the 14-3-3γ/pT205 pair [1]: ~10 fold | fold weaker affinity than of 14-3-3σ for the pT205 peptide [1]: ~3 fold

B2: MBP-tagged full-length human 14-3-3 gamma (γ) (natural protein)
chain: MVDREQLVQKARLAEQAERYDDMAAAMKNVTELNEPLSNEERNLLSVAYKNVVGARRSSWRVISSIEQKTSADGNEKKIEMVRAYREKIEKELEAVCQDVLSLLDNYLIKNCSETQYESKVFYLKMKGDYYRYLAEVATGEKRATVVESSEKAYSEAHEISKEHMQPTHPIRLGLALNYSVFYYEIQNAPEQACHLAKTAFDDAIAELDTLNEDSYKDSTLIMQLLRDNLTLWTSDQQDDDGGEGNN
KD ratio pS197 peptide / pT205 peptide (selectivity coefficient) [2]: ~7 fold

B3: Unlabeled SARS-CoV-2 N pT205 phosphopeptide WSSRGpTSPARM (peptide)
peptide: WSSRG[pT]SPARM
binding result [3]: binds

B4: Unlabeled SARS-CoV-2 N pS197 phosphopeptide WSSRNpSTPGSS (peptide)
peptide: WSSRN[pS]TPGSS
binding result [4]: binds
